{
  "source": "paper PMC9394474",
  "biological_target": "human hisTRIM7-PRYSPRY (human) (UniProt Q9C029)",
  "test": "ITC",
  "data": [
    {"substance": "ac-LLQ (peptide)", "values": [
      {"measurement": "Kd", "result": 39, "unit": "µM"}
    ]},
    {"substance": "dipeptide LQ", "values": [
      {"measurement": "Kd", "result": 200, "unit": "µM"}
    ]}
  ]
}
